We go through 5 molecules from patent publication US20050147555A1 (BRACCO SUISSE, published 2005).

Positions of bridges follow the written chain, without caps; N, C: chain ends. Groups on a side chain read outwards from the residue. Chains are numbered I, II in the order given. No end group written: not given here. *: point of attachment. Biotin = O=C1N[C@H]2[C@H](CS[C@H]2CCCCC(=O)*)N1; fluorescein = fluorescein label on a side chain; AEEA = NCCOCCOCC(=O)O

The target in experiment [1] is T1, Soluble KDR receptor (UniProt P35968 20-764, limits assumed).
T1 construct: Immobilised by amine coupling, RL 12721
T1 sequence (P35968 20-764 limits assumed): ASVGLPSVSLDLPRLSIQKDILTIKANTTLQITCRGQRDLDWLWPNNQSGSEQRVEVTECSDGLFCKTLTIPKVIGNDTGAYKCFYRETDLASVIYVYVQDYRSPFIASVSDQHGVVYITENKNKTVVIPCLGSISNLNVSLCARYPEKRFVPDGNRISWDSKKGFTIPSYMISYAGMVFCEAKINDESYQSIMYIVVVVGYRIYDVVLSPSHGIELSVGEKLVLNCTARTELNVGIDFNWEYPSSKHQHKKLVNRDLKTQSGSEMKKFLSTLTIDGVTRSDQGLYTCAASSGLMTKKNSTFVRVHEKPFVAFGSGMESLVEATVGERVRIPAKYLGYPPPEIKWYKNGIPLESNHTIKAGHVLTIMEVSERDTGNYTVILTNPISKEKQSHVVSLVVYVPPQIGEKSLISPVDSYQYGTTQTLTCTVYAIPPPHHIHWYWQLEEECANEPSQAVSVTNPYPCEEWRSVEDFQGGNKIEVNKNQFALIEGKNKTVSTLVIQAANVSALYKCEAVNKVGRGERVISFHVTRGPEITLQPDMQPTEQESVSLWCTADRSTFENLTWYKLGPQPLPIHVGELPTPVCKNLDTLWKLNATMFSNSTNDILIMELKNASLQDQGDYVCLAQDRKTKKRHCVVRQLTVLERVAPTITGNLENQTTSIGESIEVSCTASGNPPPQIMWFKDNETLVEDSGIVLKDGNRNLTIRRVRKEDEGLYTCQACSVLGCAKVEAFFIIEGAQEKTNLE
The experiment can be described thus: SPR (Biacore 3000), soluble KDR on CM5 chip; ratio of the KD of monomer P9 to the apparent KD of the tail-to-tail dimer. In general terms: In SPR one partner is held on a chip, and binding of the other changes the refractive index at the surface.
Description: (§1) Soluble KDR receptor was cross-linked to the dextran surface of a CM5 sensor chip by the standard amine coupling procedure. […] For association, peptides were injected at 20 μL/min for 2 minutes using the kinject program. Following a 3 minute dissociation period, any remaining peptide was stripped from the KDR surface with a quickinject of 50 mM NaOH, 1M NaCl for 15 s at 75 μL/min. […] Sensorgrams were analyzed by global analysis using BIAevaluation software 3.1.
By design, the interaction of a dimeric peptide with KDR is expected to proceed through two kinetic steps.

Experiment [2] concerns the target T1, Soluble KDR receptor. The experiment can be described thus: Biacore.
Description: as §1
Experiment [3] addresses T1, Soluble KDR receptor. Nature of the experiment: SPR (Biacore 3000), soluble KDR on CM5 chip; ka,1 (initial encounter).
Description: as §1
In experiment [4] the target is T1, Soluble KDR receptor. The experiment can be described thus: SPR (Biacore 3000), soluble KDR on CM5 chip; column kd,1, by the text the predominant off-rate kd,2.
Description: as §1
Experiment [5] deals with T1, Soluble KDR receptor. The experiment can be described thus: SPR (Biacore 3000), soluble KDR on CM5 chip; apparent KD.
Description: as §1
In experiment [6] the target is T1, Soluble KDR receptor. Nature of the experiment: SPR (Biacore 3000), soluble KDR on CM5 chip; column kd,1, by the text the predominant off-rate kd,2; predominant off-rate (kd,2 by the text) printed under the head kd,1.
Description: as §1
The target in experiment [7] is T1, Soluble KDR receptor. Nature of the experiment: SPR (Biacore 3000), soluble KDR on CM5 chip; ratio of the KD of monomer P10 to the apparent KD of the head-to-head dimer.
Description: as §1
The target of experiment [8] is T2, KDR-Fc (chimeric fusion of Ig Fc region with human KDR, R&D Systems #357-KD-050) (human, UniProt P35968 20-764).
T2 construct: Bought; also called KDR Fc fusion; not shown: Ig Fc region of the bought chimera
T2 sequence (P35968 20-764, change not shown): as the sequence (P35968 20-764 limits assumed) above
Nature of the experiment: fluorescence polarisation, monodentate peptide against KDRFc.

The target in experiment [9] is T3, KDR (VEGFR-2, Flk-1), full-length receptor on cells (human, UniProt P35968 20-1356).
T3 construct: whole, on cells; endogenous on HUVECs in the functional assays; also called VEGF receptor 2
T3 sequence (P35968 20-1356): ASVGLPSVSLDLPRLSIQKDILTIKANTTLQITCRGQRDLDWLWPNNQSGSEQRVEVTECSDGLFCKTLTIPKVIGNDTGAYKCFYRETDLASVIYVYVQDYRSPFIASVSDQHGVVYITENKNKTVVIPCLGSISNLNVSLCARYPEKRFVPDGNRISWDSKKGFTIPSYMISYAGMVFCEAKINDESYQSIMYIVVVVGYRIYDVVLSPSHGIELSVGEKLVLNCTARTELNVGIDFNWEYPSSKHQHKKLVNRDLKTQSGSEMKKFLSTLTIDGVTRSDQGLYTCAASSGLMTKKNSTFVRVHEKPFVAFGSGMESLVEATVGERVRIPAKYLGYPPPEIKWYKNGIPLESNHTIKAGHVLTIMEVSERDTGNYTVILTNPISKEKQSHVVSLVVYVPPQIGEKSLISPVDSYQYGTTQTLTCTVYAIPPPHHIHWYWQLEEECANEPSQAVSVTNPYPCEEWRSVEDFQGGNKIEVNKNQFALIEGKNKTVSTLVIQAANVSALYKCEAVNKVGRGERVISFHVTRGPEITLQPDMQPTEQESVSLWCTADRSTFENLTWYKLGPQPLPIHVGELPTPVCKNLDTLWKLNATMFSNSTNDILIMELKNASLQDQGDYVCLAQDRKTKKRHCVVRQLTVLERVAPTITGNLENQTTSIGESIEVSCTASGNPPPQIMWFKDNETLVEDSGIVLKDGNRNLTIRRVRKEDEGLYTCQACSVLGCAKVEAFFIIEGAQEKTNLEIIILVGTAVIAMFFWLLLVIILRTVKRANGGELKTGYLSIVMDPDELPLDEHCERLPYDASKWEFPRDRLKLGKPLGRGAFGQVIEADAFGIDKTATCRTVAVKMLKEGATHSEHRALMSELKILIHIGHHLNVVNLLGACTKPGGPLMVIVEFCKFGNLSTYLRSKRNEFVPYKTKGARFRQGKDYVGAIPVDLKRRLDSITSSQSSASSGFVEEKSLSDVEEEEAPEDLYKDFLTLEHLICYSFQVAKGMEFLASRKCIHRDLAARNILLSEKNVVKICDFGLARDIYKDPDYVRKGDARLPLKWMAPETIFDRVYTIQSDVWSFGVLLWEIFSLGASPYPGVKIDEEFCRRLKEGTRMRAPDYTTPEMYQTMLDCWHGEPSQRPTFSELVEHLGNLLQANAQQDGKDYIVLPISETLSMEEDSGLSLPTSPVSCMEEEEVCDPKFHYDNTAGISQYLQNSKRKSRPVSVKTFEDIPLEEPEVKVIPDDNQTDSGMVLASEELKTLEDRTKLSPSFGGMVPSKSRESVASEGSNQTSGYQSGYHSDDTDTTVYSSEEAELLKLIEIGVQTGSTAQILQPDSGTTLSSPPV
The experiment can be described thus: displacement of P12-XB/streptavidin-HRP complex (5.5 nM) from KDR-expressing cells.

Experiment [10] has as its target T3, KDR (VEGFR-2, Flk-1), full-length …. The experiment can be described thus: saturation binding of peptide/neutravidin-HRP complex, KDR- minus mock-transfected 293H cells.
Description: After incubation at room temperature, plates were transferred to 4° C. for another half-hour incubation. Subsequently, cells were washed five times with ice-cold M199 media and 1× with ice-cold PBS (in that order). After the final wash, 100 μL of ice cold TMB solution (KPL, cat. # 50-76-00) was added to each well, and each plate was incubated for 30 minutes at 37° C. in an air incubator.
Therefore, absorbance on the Y-axis of FIG. 8 is differential absorbance (KDR minus mock) and not the absolute absorbance.

B1: Tail-to-tail dimer of P9 and P10 (peptide)
peptide 1: Ac-AQEPEGYAYWEVITLYHEEDGDGGK-NH2
peptide 2: Ac-AQAFPRFGGDDYWIQQYLRYTDGGK-NH2
modifications: bridge I:25-II:25; not fully specified (bridges); printed as Ac-AQEPEGYAYWEVITLYHEEDGDGGK(Ac-AQAFPRFGGDDYWIQQYLRYTDGGK(—(O═)C(CH2CH2O)4CH2CH2NHC(═O)CH2CH2C(CH3)═NOCH2C(═O)NH(CH2CH2O)4CH2CH2C(═O)—)NH2)NH2; also: tail-to-tail dimer of two peptides joined through the Lys25 side chains
notes: also called T-T dimer; D31
What is called kon is the second-order rate constant of association. High values mean faster complex formation, low ones slower complex formation. The koff is the rate constant with which the complex falls apart. Read a high koff as fast dissociation. With B1, in the experiment with Soluble KDR receptor [1], the “fold increase in affinity over monomer P9” value was over 60 fold. The Kd in the experiment with Soluble KDR receptor [2] was determined as 11 nM; with Soluble KDR receptor [5], 11.1 nM. Also, the kon with Soluble KDR receptor [3] came out at 115000 M⁻¹ s⁻¹. Moreover, in the experiment with Soluble KDR receptor [4], the koff is 0.00128 s⁻¹.

B2: Head-to-head dimer of P9 and P10 (peptide)
peptide 1: AQEPEGYAYWEVITLYHEEDGDGG
peptide 2: AQAFPRFGGDDYWIQQYLRYTDGG
modifications: not fully specified; N-terminal amino group carries an NH-PEG4-CO linker and amino-oxyacetyl group, oxime-linked to the other chain; N-terminal amino group carries an NH-PEG4-CO linker and levulinyl group, oxime-linked to the other chain
notes: also called H-H dimer
Regarding B2, the kon with Soluble KDR receptor [3] worked out at 111000 M⁻¹ s⁻¹. Besides, in the experiment with Soluble KDR receptor [5], the Kd was 2.24 nM. The molecule further had a koff in the experiment with Soluble KDR receptor [6] of 0.000249 s⁻¹. Moreover, in the experiment with Soluble KDR receptor [7], the “fold increase in affinity over monomer P10” value was over 560 fold.
In turn, AGPTWCEDDWYYCWLFGTGGGK(fluorescein)-NH2 (disulfide 6-13 (inferred)) [P12, monodentate peptide measured by FP] returned a Kd in [8] of 3 nM.

B3: P34-L (peptide)
peptide: Ac-AGPTWKEDDWYYEWLFGTGGGK-NH2
modifications: lactam 6-13
SMILES: CC(=O)N[C@@H](C)C(=O)NCC(=O)N1CCC[C@H]1C(=O)N[C@H](C(=O)N[C@@H](Cc1c[nH]c2ccccc12)C(=O)N[C@H]1CCCCNC(=O)CC[C@@H](C(=O)N[C@@H](Cc2c[nH]c3ccccc23)C(=O)N[C@@H](CC(C)C)C(=O)N[C@@H](Cc2ccccc2)C(=O)NCC(=O)N[C@H](C(=O)NCC(=O)NCC(=O)NCC(=O)N[C@@H](CCCCN)C(N)=O)[C@@H](C)O)NC(=O)[C@H](Cc2ccc(O)cc2)NC(=O)[C@H](Cc2ccc(O)cc2)NC(=O)[C@H](Cc2c[nH]c3ccccc23)NC(=O)[C@H](CC(=O)O)NC(=O)[C@H](CC(=O)O)NC(=O)[C@H](CCC(=O)O)NC1=O)[C@@H](C)O
notes: also called lactam analog of P12-G
In general, IC50 refers to the concentration that gives 50% inhibition. A lower IC50 goes with higher potency. In experiment [9], B3 yielded an IC50 of 108 nM.

B4: P6-XB (4X) on neutravidin-HRP (other)
peptide: Ac-GDSRVCWEDSWGGEVCFRYDPGGGK([AEEA-AEEA-Biotin])-NH2
modifications: disulfide 6-16; also: four peptides bound to neutravidin-HRP
notes: Peptides held on the four biotin sites of neutravidin-HRP; also called tetrameric P6-XB; P6-XB Tetramer
The molecule B4 had a Kd in [10] of 10 nM.
